Values quoted from earlier work as cited in patent publication US8278280B2, “Antagonists of the bradykinin B1 receptor” (priority 2003, dated 2012).

Molecular target: T1, B2 receptors (Homo sapiens, UniProt P30411)
T1 sequence (P30411 1-391): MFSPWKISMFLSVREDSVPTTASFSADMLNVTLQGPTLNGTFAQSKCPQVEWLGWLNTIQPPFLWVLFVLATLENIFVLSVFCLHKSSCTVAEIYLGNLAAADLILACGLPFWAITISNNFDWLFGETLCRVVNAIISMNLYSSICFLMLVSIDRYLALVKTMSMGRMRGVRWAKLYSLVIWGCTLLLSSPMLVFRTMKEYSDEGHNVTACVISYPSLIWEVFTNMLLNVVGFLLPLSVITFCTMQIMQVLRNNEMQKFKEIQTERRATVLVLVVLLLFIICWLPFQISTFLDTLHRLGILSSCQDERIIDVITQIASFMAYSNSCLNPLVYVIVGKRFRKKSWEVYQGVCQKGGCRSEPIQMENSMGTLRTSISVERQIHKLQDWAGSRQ

## Arg Pro Pro Gly Phe Ser Pro Phe (RPPGFSPF; listed as Homo sapiens) [des-Arg-BK, B1 Agonist]
  activity at B2 receptors: inactive
